Data on ten molecules can be found in US20150165065A1 (AVIDBIOTICS, published 2015).

Assay [1] has as its target T1, integrin αVβ3 (UniProt P06756 31-992; P05106 27-718).
T1 construct: Coated on the ELISA plate
Nature of the assay: phage ELISA, coated integrin, anti-M13-HRP. As to the method:
(§1) The ELISA assays of the integrin target-binding of M13 phages displaying α3 domains with binding peptide inserts grafted into more than one loop were performed as follows. After the respective integrins were adhered to the bottoms of the wells of the ELISA plate, the wells were washed and blocked. Each sample (100 μl) of phage preparation was added to wells containing αVβ3 or αVβ5, incubated and washed. The phages captured by the integrins were detected by HRP-conjugated antibody to the M13 phage coat developed with Ultra TMB-ELISA substrate and the optical densities read.
(In general: In an ELISA, binding on a coated surface is turned into a signal by an enzyme label.)

Assay [2] concerns the target T2, integrin αVβ5 (UniProt P06756 31-992; P18084 24-719).
T2 construct: Coated on the ELISA plate
As to the kind of experiment: phage ELISA, coated integrin, anti-M13-HRP. On the procedure:
as §1

The target in assay [3] is T1, integrin αVβ3. As to the kind of experiment: phage ELISA, coated integrin, anti-M13-HRP. On the procedure:
(§2) The phage vectors were independently transformed into NEBαF′tet competent E. coli cells. Phages produced by the transformed cells were tittered and their concentrations adjusted by dilution to 10¹³ per ml. The ability of the soluble MICA molecules in each of the phage preparations was assayed by an ELISA using the intended target proteins, integrin αVβ3 or αVβ5, as capture agents on the ELISA plate. After the respective integrins were adhered to the bottoms of the wells of the ELISA plate, the wells were washed and blocked, as well known in the field. Each sample (100 μl) of phage preparation was added to wells containing αVβ3 or αVβ5, incubated and washed. The phages captured by the integrins were detected by HRP-conjugated antibody to the M13 phage coat developed with Ultra TMB-ELISA substrate and the optical densities read.
This is another data set of the same source.

Assay [4] deals with T2, integrin αVβ5. As to the kind of experiment: phage ELISA, coated integrin, anti-M13-HRP. As to the method:
as §2
This is another data set of the same source.

Assay [5] addresses T1, integrin αVβ3. Nature of the assay: ELISA, coated integrin, anti-MICA-HRP. As to the method:
(§3) The ability of the soluble MICA molecules in each of the concentrated supernatants to bind target molecules was assayed by an ELISA using the intended target proteins, integrin αVβ3 or αVβ5, as capture agents on the ELISA plate. After the respective integrins were adhered to the bottoms of the wells of the ELISA plate, the wells were washed and blocked, as well known in the field. Each sample (100 μl) of soluble MICA produced and secreted by 293T cells was added to wells containing αVβ3 or αVβ5, incubated and washed. The soluble MICA molecules captured by the integrins were detected by HRP-conjugated antibody to human MICA developed with Ultra TMB-ELISA substrate and the optical densities read. The quantity of soluble MICA in each sample was determined by the MICA-specific ELISA. […] The ELISA signal from a non-binding, negative control MICA (generated by pSW273) was subtracted from each integrin binding signal.

Assay [6] concerns the target T2, integrin αVβ5. Nature of the assay: ELISA, coated integrin, anti-MICA-HRP. As to the method: as §3
The target of assay [7] is T1, integrin αVβ3. Nature of the assay: ELISA, coated integrin, anti-MICA-HRP. As to the method: (§4) ELISA assays of the integrin target-binding of soluble MICA molecules generated from pKK128-131 were performed as follows. After the respective integrins were adhered to the bottoms of the wells of the ELISA plate, the wells were washed and blocked. Each sample (100 μl) of culture supernatant was added to wells containing αVβ3 or αVβ5, incubated and washed. The soluble MICA molecules captured by the integrins were detected by HRP-conjugated antibody to human MICA developed with Ultra TMB-ELISA substrate and the optical densities read. The quantity of soluble MICA in each sample was determined by the MICA-specific ELISA.
The source holds these as a separate data set.

Assay [8] concerns the target T2, integrin αVβ5. Nature of the assay: ELISA, coated integrin, anti-MICA-HRP. On the procedure:
as §4
The source holds these as a separate data set.

Residue numbers refer to the chain shown, from its start. Where two headings read alike, the source gives them in different places.

T2 sequence (P06756 31-992, chain 1 of 2): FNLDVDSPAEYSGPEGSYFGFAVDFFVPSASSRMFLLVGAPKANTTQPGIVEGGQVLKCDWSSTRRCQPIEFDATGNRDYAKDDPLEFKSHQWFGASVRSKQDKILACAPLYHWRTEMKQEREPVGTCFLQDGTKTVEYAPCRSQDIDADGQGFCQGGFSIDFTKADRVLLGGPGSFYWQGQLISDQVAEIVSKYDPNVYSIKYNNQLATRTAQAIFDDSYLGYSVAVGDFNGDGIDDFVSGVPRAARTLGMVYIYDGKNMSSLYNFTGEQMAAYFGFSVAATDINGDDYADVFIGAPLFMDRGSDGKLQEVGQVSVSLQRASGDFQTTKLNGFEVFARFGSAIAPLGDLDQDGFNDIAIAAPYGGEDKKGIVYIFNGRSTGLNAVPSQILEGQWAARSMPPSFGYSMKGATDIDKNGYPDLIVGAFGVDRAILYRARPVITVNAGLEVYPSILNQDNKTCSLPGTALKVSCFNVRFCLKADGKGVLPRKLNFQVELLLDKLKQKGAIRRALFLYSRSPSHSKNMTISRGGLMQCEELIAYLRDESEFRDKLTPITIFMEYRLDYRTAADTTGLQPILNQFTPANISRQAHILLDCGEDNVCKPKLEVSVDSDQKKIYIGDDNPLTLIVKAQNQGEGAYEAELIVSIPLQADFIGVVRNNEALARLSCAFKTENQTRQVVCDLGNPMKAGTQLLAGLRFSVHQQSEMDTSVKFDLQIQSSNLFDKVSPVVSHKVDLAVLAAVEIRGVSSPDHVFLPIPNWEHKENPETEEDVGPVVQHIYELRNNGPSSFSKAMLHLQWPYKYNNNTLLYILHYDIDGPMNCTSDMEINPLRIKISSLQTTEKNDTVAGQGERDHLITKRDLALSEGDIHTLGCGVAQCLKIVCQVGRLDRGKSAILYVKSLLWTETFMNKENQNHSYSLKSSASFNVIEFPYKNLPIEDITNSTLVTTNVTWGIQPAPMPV
T2 sequence (P18084 24-719, chain 2 of 2): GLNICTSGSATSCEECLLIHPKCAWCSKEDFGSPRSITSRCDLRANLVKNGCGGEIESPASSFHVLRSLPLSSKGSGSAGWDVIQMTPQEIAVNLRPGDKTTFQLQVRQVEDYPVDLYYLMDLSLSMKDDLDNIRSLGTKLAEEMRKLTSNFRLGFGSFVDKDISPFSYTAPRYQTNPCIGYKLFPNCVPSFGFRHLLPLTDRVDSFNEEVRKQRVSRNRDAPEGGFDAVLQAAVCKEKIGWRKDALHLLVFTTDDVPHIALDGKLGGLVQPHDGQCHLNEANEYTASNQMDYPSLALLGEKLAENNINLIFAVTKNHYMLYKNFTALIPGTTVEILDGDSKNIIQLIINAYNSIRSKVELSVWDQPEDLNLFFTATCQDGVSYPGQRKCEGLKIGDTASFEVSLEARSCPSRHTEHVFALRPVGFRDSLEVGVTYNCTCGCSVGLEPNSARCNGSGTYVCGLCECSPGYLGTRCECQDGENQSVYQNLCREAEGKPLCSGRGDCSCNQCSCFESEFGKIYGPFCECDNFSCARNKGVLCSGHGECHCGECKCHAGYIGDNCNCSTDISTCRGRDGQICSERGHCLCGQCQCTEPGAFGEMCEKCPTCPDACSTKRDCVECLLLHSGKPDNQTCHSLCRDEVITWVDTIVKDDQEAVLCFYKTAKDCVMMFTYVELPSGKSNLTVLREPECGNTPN
T1 sequence (P06756 31-992, chain 1 of 2): as the sequence (P06756 31-992, chain 1 of 2) above
T1 sequence (P05106 27-718, chain 2 of 2): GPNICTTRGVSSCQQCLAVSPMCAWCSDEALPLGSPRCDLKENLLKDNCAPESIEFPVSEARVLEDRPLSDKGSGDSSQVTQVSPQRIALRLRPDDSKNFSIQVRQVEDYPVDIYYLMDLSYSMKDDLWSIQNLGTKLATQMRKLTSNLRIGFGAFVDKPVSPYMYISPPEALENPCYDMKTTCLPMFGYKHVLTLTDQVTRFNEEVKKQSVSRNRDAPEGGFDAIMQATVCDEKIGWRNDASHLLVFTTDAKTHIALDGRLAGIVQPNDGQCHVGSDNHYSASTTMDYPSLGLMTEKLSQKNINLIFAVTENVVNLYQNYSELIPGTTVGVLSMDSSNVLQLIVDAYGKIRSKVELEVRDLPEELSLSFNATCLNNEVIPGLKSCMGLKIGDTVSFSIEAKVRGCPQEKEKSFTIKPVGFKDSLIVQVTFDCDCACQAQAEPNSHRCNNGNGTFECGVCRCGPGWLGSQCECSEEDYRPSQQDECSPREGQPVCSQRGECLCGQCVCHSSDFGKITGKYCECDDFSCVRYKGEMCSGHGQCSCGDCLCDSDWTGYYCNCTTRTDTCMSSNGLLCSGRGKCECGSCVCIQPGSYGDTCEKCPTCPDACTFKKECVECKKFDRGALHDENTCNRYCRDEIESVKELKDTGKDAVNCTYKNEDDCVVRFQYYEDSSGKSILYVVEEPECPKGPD

B1: M13 phage pKK136 displaying MICA α3 domain with loop 1 insert 5.1sp and loop 3 insert 3.2sp (designed binder)
chain: TVPPMVNVTSGGSGGGSVTRGDTFTQSSGGSGGGVTCRASGFYPWNITLSWRQDGVSLSHDTQQWGDVLPDGNGTYQTWVATRISGGSGGGSTSRGDHPRTQSGGSGGGCYMEHSGNHSTHPVPSGK
notes: also called 1-5.1sp/3-3.2sp; not shown: C-terminal portion of M13 gene III protein, fused at codon position 198
On to B1, for which the αvβ3 signal in the assay with integrin αVβ3 [1] was 2.46 OD. In the assay with integrin αVβ5 [2], this molecule displayed a αvβ5 signal of 4.28 OD.

B2: M13 phage pKK139 displaying MICA α3 domain with loop 1 insert 5.1sp and loop 3 insert 5.1spNH (designed binder)
chain: B1 chain with T93V, S94T, H98T, P99F, R100T, T101Q, Q102S
notes: also called 1-5.1sp/3-5.1spNH; not shown: C-terminal portion of M13 gene III protein, fused at codon position 198
B2 showed a αvβ3 signal with integrin αVβ3 [1] of 2.48 OD. In the assay with integrin αVβ5 [2], this molecule came in with a αvβ5 signal of 5.36 OD.

B3: M13 phage pKK138 displaying MICA α3 domain with loop 1 insert 5.1sp and loop 3 insert 5.3sp (designed binder)
chain: B1 chain with T93H, S94L, R95A, G96R, D97G, H98D, P99D, R100L, Q102Y
notes: also called 1-5.1sp/3-5.3sp; not shown: C-terminal portion of M13 gene III protein, fused at codon position 198
For the molecule B3, the αvβ3 signal with integrin αVβ3 [1] was found to be 0.886 OD. In the assay with integrin αVβ5 [2], this molecule registered a αvβ5 signal of 2.75 OD.

B4: M13 phage pKK92 displaying MICA α3 domain with loop 1 insert 3.1 (designed binder)
chain: TVPPMVNVTSRGDHPRTQVTCRASGFYPWNITLSWRQDGVSLSHDTQQWGDVLPDGNGTYQTWVATRICQGEEQRFTCYMEHSGNHSTHPVPSGK
notes: also called 1-3.1; not shown: C-terminal portion of M13 gene III protein, fused at codon position 198
Consider B4, for which the αvβ3 signal with integrin αVβ3 [3] stood at 0.858 OD. For the same molecule, in the assay with integrin αVβ5 [4], the αvβ5 signal stood at 1.32 OD.

B5: soluble MICA generated from pKK46 (loop 1 insert extended 5.1sp) (designed binder)
chain: HHHHHHEPHSLRYNLTVLSWDGSVQSGFLTEVHLDGQPFLRCDRQKCRAKPQGQWAEDVLGNKTWDRETRDLTGNGKDLRMTLAHIKDQKEGLHSLQEIRVCEIHEDNSTRSSQHFYYDGELFLSQNLETEEWTMPQSSRAQTLAMNVRNFLKEDAMKTKTHYHAMHADCLQELRRYLKSGVVLRRTVPPMVNVTSGGSGGGSVTRGDTFTQSSGGSGGGVTCRASGFYPWNITLSWRQDGVSLSHDTQQWGDVLPDGNGTYQTWVATRICQGEEQRFTCYMEHSGNHSTHPVPSGK
notes: From pKK34 (His6, Glu125); secreted by 293T cells; also called 1-5.1sp
Consider B5, for which, in the assay with integrin αVβ3 [5], the αvβ3 signal was 0.384 OD and the αvβ3 signal/ng turned out to be 9.2 signal/ng MICA. In the assay with integrin αVβ5 [6], this molecule returned a αvβ5 signal of 1.06 OD and a αvβ5 signal/ng of 25.5 signal/ng MICA. Also, in the assay with integrin αVβ3 [7], the αvβ3 signal is 0.467 OD and the αvβ3 signal/ng is 9.42 signal/ng MICA. In the assay with integrin αVβ5 [8], this molecule came in with a αvβ5 signal of 0.66 OD and a αvβ5 signal/ng of 13.3 signal/ng MICA.

B6: M13 phage pKK97 displaying MICA α3 domain with loop 1 insert 5.2 (designed binder)
chain: TVPPMVNVTRGDTFTQSVTCRASGFYPWNITLSWRQDGVSLSHDTQQWGDVLPDGNGTYQTWVATRICQGEEQRFTCYMEHSGNHSTHPVPSGK
notes: also called 1-5.2; not shown: C-terminal portion of M13 gene III protein, fused at codon position 198
Molecule B6 registered a αvβ3 signal in the assay with integrin αVβ3 [3] of 1.55 OD. Further, the αvβ5 signal in the assay with integrin αVβ5 [4] was determined as 2.59 OD.

B7: M13 phage pKK94 displaying MICA α3 domain with loop 1 insert 3.3 (designed binder)
chain: TVPPMVNVTRVPRGDSDLTVTCRASGFYPWNITLSWRQDGVSLSHDTQQWGDVLPDGNGTYQTWVATRICQGEEQRFTCYMEHSGNHSTHPVPSGK
notes: also called 1-3.3; not shown: C-terminal portion of M13 gene III protein, fused at codon position 198
Consider B7, for which the αvβ3 signal in the assay with integrin αVβ3 [3] amounted to 1.07 OD. In the assay with integrin αVβ5 [4], this molecule had a αvβ5 signal of 2.84 OD.

B8: M13 phage pKK96 displaying MICA α3 domain with loop 1 insert 5.1 (designed binder)
chain: B7 chain with R10V, V11T, P12R, R13G, G14D, D15T, S16F, D17T, L18Q, T19S
notes: also called 1-5.1; not shown: C-terminal portion of M13 gene III protein, fused at codon position 198
The molecule B8 gave a αvβ3 signal with integrin αVβ3 [3] of 1.64 OD. The αvβ5 signal in the assay with integrin αVβ5 [4] was found to be 2.42 OD.

B9: M13 phage pKK98 displaying MICA α3 domain with loop 1 insert 5.3 (designed binder)
chain: B7 chain with R10H, V11L, P12A, S16D, D17L, L18T, T19Y
notes: also called 1-5.3; not shown: C-terminal portion of M13 gene III protein, fused at codon position 198
B9 gave a αvβ3 signal with integrin αVβ3 [3] of 1.22 OD. Further, the αvβ5 signal with integrin αVβ5 [4] stood at 1.48 OD.

B10: soluble MICA generated by pSW273 (wild type loops, negative control) (ligand)
chain: HHHHHHEPHSLRYNLTVLSWDGSVQSGFLTEVHLDGQPFLRCDRQKCRAKPQGQWAEDVLGNKTWDRETRDLTGNGKDLRMTLAHIKDQKEGLHSLQEIRVCEIHEDNSTRSSQHFYYDGELFLSQNLETEEWTMPQSSRAQTLAMNVRNFLKEDAMKTKTHYHAMHADCLQELRRYLKSGVVLRRTVPPMVNVTRSEASEGNITVTCRASGFYPWNITLSWRQDGVSLSHDTQQWGDVLPDGNGTYQTWVATRICQGEEQRFTCYMEHSGNHSTHPVPSGK
notes: Secreted by 293T cells; six His between signal peptide and residue 1; made from pSW267 (Glu125); also called WT
Take B10: the binding result in the assay with integrin αVβ3 [5] was “no binding”. Also, the binding result with integrin αVβ5 [6] is recorded as “no binding”. Further, in the assay with integrin αVβ3 [7], the αvβ3 signal was determined as 0.099 OD and the αvβ3 signal/ng is 6.73 signal/ng MICA. In the assay with integrin αVβ5 [8], this molecule yielded a αvβ5 signal of 0.1 OD and a αvβ5 signal/ng of 6.8 signal/ng MICA.
